The target in series [1] is T1, WsTR-I (Withania somnifera, UniProt U5PUZ1).
T1 construct: His6-tagged (pET28a NdeI/BamHI), E. coli BL21 (DE3); Ni-NTA and gel filtration; homodimer about 60 kDa
The series is described as follows: spectrophotometric A340, NADPH oxidation. In kind it is biochemical. The settings on record: forward reaction, MES-NaOH pH 6.7, 30°C, kcat per monomer, unit inferred from kcat/Km. The text has this:
(§1) spectrophotometric A340, NADPH oxidation on WsTR-I

The target in series [2] is T1, WsTR-I. Description: spectrophotometric A340, NADP+ reduction. The note with it: reverse reaction; tropine; 30°C; printed kcat 0.54 (no unit) disagrees with printed kcat/Km. In kind it is biochemical. The text has this:
spectrophotometric A340, NADP+ reduction on WsTR-I

In series [3] the target is Withania somnifera tropine forming tropinone reductase (WsTR-I), recombinant His6-WsTR-I (Withania somnifera). Description: SEC; calibrated Sephadex G-150 column (70.0 cm x 0.6 cm), 0.1 M MES-NaOH pH 6.7 with 0.1 M NaCl, 5 ml/h; markers ovalbumin, BSA, alcohol dehydrogenase; elution followed by catalytic activity; native mass about 60 kDa compared with the 29.41 kDa subunit. Background: In gel filtration, larger molecules generally elute earlier.

Series [4] concerns CN1[C@@H]2CC[C@H]1CC(=O)C2. The series is described as follows: spectrophotometric A340, NADPH oxidation. In kind it is biochemical, Withania somnifera. The note with it: forward reaction, MES-NaOH pH 6.7, 30°C, kcat per monomer, unit inferred from kcat/Km.
Excerpt: as §1

As for `CC1CCCC(=O)C1` (stereo not shown) [3-methyl-cyclohexanone], the Km in series [1] (NADPH) was determined as 2110 µM.

As for `NC(=O)C1=CN([C@@H]2O[C@H](COP(=O)(O)OP(=O)(O)OC[C@H]3O[C@@H](n4cnc5c(N)ncnc54)[C@H](OP(=O)(O)O)[C@@H]3O)[C@@H](O)[C@H]2O)C=CC1` [NADPH], in series [1] (tropinone), the Michaelis constant (Km) was 0.43 µM.

In the case of `NC(=O)c1ccc[n+]([C@@H]2O[C@H](COP(=O)(O)OP(=O)(O)OC[C@H]3O[C@@H](n4cnc5c(N)ncnc54)[C@H](OP(=O)(O)O)[C@@H]3O)[C@@H](O)[C@H]2O)c1` [NADP^+], the Michaelis-Menten constant (Km) in series [2] turned out to be 96.2 µM. Turning to “Withania somnifera tropine forming tropinone reductase (WsTR-I), recombinant His6-WsTR-I (enzyme)”, the stoichiometry N in series [3] turned out to be 2.

Consider WsTR-I (Withania somnifera), for which, in series [4], the Km turned out to be 1270 µM, the turnover number (kcat) amounted to 9.51 s⁻¹ and the kcat/Km was 7490 M⁻¹ s⁻¹.

In general, Km refers to the concentration of substrate that gives half-maximal velocity. As a reminder, the stoichiometry N is a count of units in the complex or per binding partner. The kcat is the number of substrate molecules converted per active site and unit of time at saturation. One may read the kcat/Km as the second-order rate constant that governs catalysis at low substrate concentration.
